From article PMC9015746

Columns and labels:
[1] = biological target: purified wild-type VP5 protein (bluetongue virus BTV-1); test: SEC
[2] = biological target: Bluetongue virus core protein VP7 (in the purified BTV-1 virion) (bluetongue virus BTV-1); test: cryo-EM structure
[3] = biological target: Bluetongue virus membrane penetration protein VP5 (in the purified BTV-1 virion) (bluetongue virus BTV-1); test: cryo-EM structure

For “purified wild-type VP5 protein (natural protein)”, the stoichiometry N [1] was 3.

For “Bluetongue virus core protein VP7 (in the purified BTV-1 virion) (natural protein)”, the stoichiometry N [2] was 3.

“Bluetongue virus membrane penetration protein VP5 (in the purified BTV-1 virion) (natural protein)” was tested, and the stoichiometry N [3] was 3.
